Molecular target: C/EBPα WT (ivt) (human, UniProt P49715 1-358)
Assay: EMSA; supershift by C/EBPα antibody; 10 mM HEPES-KOH pH 7.9, 50 mM KCl, 2.5 mM MgCl2, 1 mM DTT, 10% glycerol, 1 ug BSA, 0.5 ug poly(dI-dC), 25 ul, on ice 20 min; 6% gel, 0.5x TBE, 4 °C

C/EBPα WT (ivt), sequence (P49715 whole entry): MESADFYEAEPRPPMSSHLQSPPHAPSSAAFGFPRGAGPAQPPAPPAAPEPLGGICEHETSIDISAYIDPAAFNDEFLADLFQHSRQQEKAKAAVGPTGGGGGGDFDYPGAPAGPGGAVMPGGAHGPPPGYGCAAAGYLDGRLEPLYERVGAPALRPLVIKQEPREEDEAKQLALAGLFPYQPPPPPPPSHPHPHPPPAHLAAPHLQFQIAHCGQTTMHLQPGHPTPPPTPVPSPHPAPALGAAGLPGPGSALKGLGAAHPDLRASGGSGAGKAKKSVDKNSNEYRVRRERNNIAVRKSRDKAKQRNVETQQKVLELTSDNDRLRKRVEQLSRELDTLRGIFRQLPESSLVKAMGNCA

B1: G-CSF receptor promoter C/EBP site oligonucleotide (dsDNA)
DNA 1: CTAGGGCTTGCGCAATCTATATTCG
DNA 2: CGAATATAGATTGCGCAAGCCCTA
binding result: binds

From paper PMC4814574
